The values below come from US12559545 (VANDERBILT UNIVERSITY, dated 2026).

Experiment [1] has as its target T1, HeV RBP on live Hendra virus (Hendra virus, UniProt O89343 182-603).
T1 sequence: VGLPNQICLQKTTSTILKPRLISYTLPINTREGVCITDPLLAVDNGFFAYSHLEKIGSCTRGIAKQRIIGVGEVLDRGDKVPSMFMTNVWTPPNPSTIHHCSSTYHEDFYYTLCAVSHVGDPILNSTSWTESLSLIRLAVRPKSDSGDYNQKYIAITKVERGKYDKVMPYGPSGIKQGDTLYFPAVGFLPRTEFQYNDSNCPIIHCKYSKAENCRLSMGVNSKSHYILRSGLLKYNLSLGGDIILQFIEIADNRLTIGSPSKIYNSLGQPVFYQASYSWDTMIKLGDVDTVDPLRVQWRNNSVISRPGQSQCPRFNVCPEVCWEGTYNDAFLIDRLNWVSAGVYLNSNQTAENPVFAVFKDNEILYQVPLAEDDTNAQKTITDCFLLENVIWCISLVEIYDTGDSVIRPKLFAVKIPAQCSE
The experiment can be described thus: cell-based or functional assay.

Experiment [2] deals with NiVB RBP on live Nipah virus Bangladesh (Nipah virus, strain Bangladesh, UniProt Q9IH62 182-602). Briefly: cell-based or functional assay.
Experiment [3] has as its target T2, NiVM-RBP head domain (residues 183-602), recombinant soluble (Nipah virus, strain Malaysia, UniProt Q9IH62 183-602).
T2 sequence: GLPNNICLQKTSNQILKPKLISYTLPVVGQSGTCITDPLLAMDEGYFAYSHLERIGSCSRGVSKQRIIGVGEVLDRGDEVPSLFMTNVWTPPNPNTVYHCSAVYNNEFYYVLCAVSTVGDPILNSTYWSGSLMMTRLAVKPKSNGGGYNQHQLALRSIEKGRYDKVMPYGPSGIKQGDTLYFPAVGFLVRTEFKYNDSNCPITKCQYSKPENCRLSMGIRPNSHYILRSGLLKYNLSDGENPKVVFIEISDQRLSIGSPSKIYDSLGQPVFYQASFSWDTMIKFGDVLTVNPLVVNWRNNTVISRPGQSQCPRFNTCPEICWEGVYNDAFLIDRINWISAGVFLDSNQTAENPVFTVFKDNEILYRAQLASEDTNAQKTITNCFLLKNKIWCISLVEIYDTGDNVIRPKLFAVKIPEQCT
Briefly: ELISA, RBP head domain coated on plate, hybridoma IgG. A general note: In an ELISA, binding on a coated surface is turned into a signal by an enzyme label.

Experiment [4] concerns the target T3, HeV-RBP head domain (residues 185-604), recombinant soluble (Hendra virus, UniProt O89343 185-603).
T3 sequence: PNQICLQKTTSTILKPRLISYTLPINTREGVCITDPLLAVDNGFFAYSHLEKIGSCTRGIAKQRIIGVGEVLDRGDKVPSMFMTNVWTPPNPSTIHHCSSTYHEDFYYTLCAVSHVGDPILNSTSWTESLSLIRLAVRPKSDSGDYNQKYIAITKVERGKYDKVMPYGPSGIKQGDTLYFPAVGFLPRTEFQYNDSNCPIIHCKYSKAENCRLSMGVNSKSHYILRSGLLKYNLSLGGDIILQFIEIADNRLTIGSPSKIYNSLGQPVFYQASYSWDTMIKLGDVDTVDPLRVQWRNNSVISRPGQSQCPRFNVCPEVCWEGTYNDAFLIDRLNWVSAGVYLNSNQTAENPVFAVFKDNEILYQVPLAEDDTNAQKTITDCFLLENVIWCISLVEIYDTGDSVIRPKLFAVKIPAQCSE
The description is as above.

Experiment [5] addresses T4, NiVB-RBP head domain (residues 185-602), recombinant soluble (Nipah virus, strain Bangladesh, UniProt Q9IH62 185-602). The experiment is described as above.
Experiment [6] has as its target full-length NiVB-RBP expressed on the surface of transfected cells (Nipah virus, strain Bangladesh, UniProt Q9IH62 182-602).
Experiment [7] deals with T5, full-length HeV-RBP expressed on the surface of transfected cells (Hendra virus, UniProt O89343 182-603).
T5 sequence: T1 sequence

In experiment [8] the target is T6, full-length NiVM-RBP expressed on the surface of transfected cells (Nipah virus, strain Malaysia, UniProt Q9IH62 182-602).
T6 sequence: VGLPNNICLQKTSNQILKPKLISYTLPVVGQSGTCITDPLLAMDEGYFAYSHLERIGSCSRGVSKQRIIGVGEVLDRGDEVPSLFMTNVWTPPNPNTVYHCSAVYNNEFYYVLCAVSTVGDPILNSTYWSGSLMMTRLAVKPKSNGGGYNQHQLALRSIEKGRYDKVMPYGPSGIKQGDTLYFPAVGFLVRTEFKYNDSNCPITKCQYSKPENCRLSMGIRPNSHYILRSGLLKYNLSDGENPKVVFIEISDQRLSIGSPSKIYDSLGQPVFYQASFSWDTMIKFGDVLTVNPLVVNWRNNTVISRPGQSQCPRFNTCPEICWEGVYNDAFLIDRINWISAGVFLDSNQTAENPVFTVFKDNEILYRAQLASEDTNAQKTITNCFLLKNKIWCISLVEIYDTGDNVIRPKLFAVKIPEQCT

The target of experiment [9] is T2, NiVM-RBP head domain (residues …).
The target in experiment [10] is T3, HeV-RBP head domain (residues 185-604), ….
Experiment [11] has as its target T4, NiVB-RBP head domain (residues …).

B1: HENV-32 (antibody, V domains shown)
VH: QVQLVQSGAEVKKPGSSVKVSCKVSGGIFNRETINWVRQAPGQGLEWMGRITPIVDVPNYPRKFRGRVTITADKSTSTVYMELSGLRFEDTAIYFCARFRGHNYFDPWGQGTLVTVSS
VL: SYVLTQPPSVSVAPGQTARITCGGNNIGGKSVHWYQQKPGQAPVLVVYDDRDRPSGIPERFSGSNSGDTASLTISRVDAGDEADYFCQVWDNASDEAVFGGGTKLTVL
Regarding B1, the “IC50, plaque reduction neutralization of live virus” value in experiment [1] is 0.27 µg/mL; in [2], 0.38 µg/mL. Moreover, the “Area under the curve” value in experiment [3] stood at 8; in experiment [4], 3.71; in [5], 6.6. Also, the EC50 in experiment [3] is 0.42 µg/mL; in experiment [4], 0.36 µg/mL; in experiment [5] it was 0.96 µg/mL; in [6] it was 0.836 µg/mL; in experiment [7], 0.68 µg/mL; in experiment [8] it was 0.76 µg/mL.

B2: HENV-32 Fab (Fab, V domains shown)
VH: B1 VH
VL: B1 VL
On to B2, for which the Kd in experiment [9] stood at 2.2 nM; in experiment [10], 2.1 nM; in experiment [11], 2.8 nM.

One may read the EC50 as the concentration that produces a half-maximal response. By Kd is commonly meant the constant that tells how readily two partners part at equilibrium.
